This series concerns the molecule itself. The series is described as follows: SEC-MALS. (In general: In gel filtration, larger molecules generally elute earlier.)

B1: MBP-EBOV NP 1-367 (domain or fragment)
chain: MDSRPQKIWMAPSLTESDMDYHKILTAGLSVQQGIVRQRVIPVYQVNNLEEICQLIIQAFEAGVDFQESADSFLLMLCLHHAYQGDYKLFLESGAVKYLEGHGFRFEVKKRDGVKRLEELLPAVSSGKNIKRTLAAMPEEETTEANAGQFLSFASLFLPKLVVGEKACLEKVQRQIQVHAEQGLIQYPTAWQSVGHMMVIFRLMRTNFLIKFLLIHQGMHMVAGHDANDAVISNSVAQARFSGLLIVKTVLDHILQKTERGVRLHPLARTAKVKNEVNSFKAALSSLAKHGEYAPFARLLNLSGVNNLEHGLFPQLSAIALGVATAHGSTLAGVNVGEQYQQLREAATEAEKQLQQYAESRELDHLG
Turning to B1, the binding result is given as “binds”.

Values taken from paper PMC4500542 (Cell reports, 2015).
